Test results published in patent US7527954.

Target: biotinylated Calmodulin-binding peptide, biotin-…
Assay: model selection from a 4200:1 mixture (ED-B:Calmodulin templates) on peptide-coated magnetic beads; 35-cycle PCR, 1:10^5 dilution, real-time PCR on 1 µl; background carry-over of the excess non-binder

Chain of biotinylated Calmodulin-binding peptide, biotin-… (peptide, as listed by the source): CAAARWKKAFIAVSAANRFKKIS

With “M.Hae III-ED-B fusion protein (covalently bonded to the linear DNA coding for it) (from UniProt P20589 1-330; P02751 1266-1356)” the DNA molecules detected after selection (DNA molecules) was 1.4e+06.
